Results taken from the DeepSol protein solubility set.

assay: soluble on expression in E. coli; label from the status in PepcDB or PDB records

Sequence	soluble on expression in E. coli
MGSDKIHHHHHHMRTFQYANANPSANVSPMGRTSLATSAAKARGPLNGLIAERMRQLNLSTVKDFADYAGIGRTSIHDLVRGRTTTSGTWTKPSFDTLTKLAVALDKPTHELLYLIDPEAPGANLMFDVQQVPVYIAGQVGAGPQQLWESSDVVYVERQFAENRDLIAFTVVGDSMAGGRHPIHDGDVVIVDQRVGGEVNFPVVARLKDDGHVVKRCGPAASSTAPTRTSWTLTPQSLPLTVSPTWWDASSG	not soluble
MKLNDPLVESFEFRGEIYPIDLSFNKVLDVFDVIDDDFLNEAEKCFLCLDILLDRTDLPFTYAVDLWVYIKTNFIDAERPEKPQLDIKGNPMPVVKEKEDNKKVIDLSLDAEFIYASFRQAYQINLLKEQNRLSWIEFKALLNALPDDTVMQRIIAIRQWEDDGEGSKKYRDNMRKLKAKYSLDEREEEDDGS	not soluble
MEAGFVSIGDVTFRDLEDEAIVELVRKGNTDALEYLIHKYKNFVRAKSRSYFLVGADREDIVQEGMIGLFKAIRDYKEDKLSSFKAFAELCITRQIITAIKTATRQKHIPLNSYVSLDKPIYDEESDRTLLDVISEAKVTDPEEMIISQEEYTDIESKISELLSDLERKVLSLYLDGRSYQEISEQLNRHVKSIDNALQRVKRKLERYMEMRESTTLNS	not soluble
MGSDKIHHHHHHMKEKERLIIEMAMKLFATKGVNATSVQEIVTACGISKGAFYLYFKSKEELLLATLRYYYDKIQNKMMDIEKESLLPREKFAKQLHCQFNDIQKHKEFIIMHARENAIPFNKEVEEFMMRMKLESHAFYRNSLLSIYGDKVMPYLLDLVIMVEGICRGYLELIILQAPEIDLSYVSAFILKRVDHLVDGLVKSSEEPVLHEERLGEFLCKSELIKEQVKEHFLKEIIVFKRTLADQLEDEELLVTLDVLEAEMRMQNPRIPVIQGMLFNLEAYPTLKEFRLRLMGYYNIKR	not soluble
MSHTILLLQPTDNIESRSWSDYENTTECLEGICRVYEEYLKKKVPAQNEITYDISHLFEFIDDLKDLSMLVLDNTTYTYVPHNKQYVKESIYKLMNNRLNNQH	not soluble
MAHHHHHHMDDFPLSLCSSNIRETMFKVTAPLFLALTTSNAIALSRGTSVSVSSEGGKCNEIWYSNGKEMCGSPLAPQSSTVQRALPPAPAPAKKPESSLRSGDEVATQHEERGGLDLRSIASRQPSFDALSATINGERQVGRASGTAIRGGNEGSAEPSSDEGQQRTTELWSGQAEGQVKQMAEGEQRNPGSGDEGQNQGGDVAPLQVAKEGESNMKWPPAQRVILGTVKENAQKETRKDLDDLEQEANSTQVGRTTAHKRHVMLITATLSFICVQRLLV	soluble
MKDKVYKRPVSILVVIYAQDTKRVLMLQRRDDPDFWQSVTGSVEEGETAPQAAMREVKEEVTIDVVAEQLTLIDCQRTVEFEIFSHLRHRYAPGVTRNTESWFCLALPHERQIVFTEHLAYKWLDAPAAAALTKSWSNRQAIEQFVINAA	soluble
MEPYVGIVIFELAKSNTSPEENNSFFREDFYIVYADSEEAAHKLVEKRAHEEETPKNAAQDSGPTVTLRHIIDVAPALYGYVDKDCNLYSRHFASLEDYARFEMMLGGKDPLSH	soluble
MKTFSDRWRQLDWDDIRLRINGKTAADVERALNASQLTRDDMMALLSPAASGYLEQLAQRAQRLTRQRFGNTVSFYVPLYLSNLCANDCTYCGFSMSNRIKRKTLDEADIARESAAIREMGFEHLLLVTGEHQAKVGMDYFRRHLPALREQFSSLQMEVQPLAETEYAELKQLGLDGVMVYQETYHEATYARHHLKGKKQDFFWRLETPDRLGRAGIDKIGLGALIGLSDNWRVDSYMVAEHLLWLQQHYWQSRYSVSFPRLRPCTGGIEPASIMDERQLVQTICAFRLLAPEIELSLSTRESPWFRDRVIPLAINNVSAFSKTQPGGYADNHPELEQFSPHDDRRPEAVAAALTAQGLQPVWKDWDSYLGRASQRL	not soluble
MGLFDRLKRVVGANVNDLINKAEDPEKMLEQAILEMQEDLVQLRQGVAQAIAAQKRTEKQYNDAQNEINKWDRNARLALQKGDENLARQALERKKSFTDTSTSLKTSLDQQTIQVDTLKKNLIQLESKISEAKTKKEMLKARITAAKAQEQLGSMVVSMNSSSAMAAFERMEEKVLMQEARAQSTAELVGADLETQFAQLESGSDVDDELAALKASMLPPAPAPQGQLPPSQATTAKPTEPIDSDLEALKRQLDQM	not soluble
MSLNAIHRILMTTDGSITAIIEAVTQKKVEVETLEQKIIRADRELAELLEIDEGDEVNYRVVYLRANGEIYAKAISFTPLKRLENSFREDLMRADIPIGKIMRKHNIEARREIRWSRVEEADLALAKELGIADRRVISRNYNIIHRGKVLINITEFFPMERFRIEGYHHHHH	soluble
MSLTADPPACTVPAAGGSSTHKLVNGGADKLIFKIKSSNNNEYRIVPVFGFVDPSGSKDVVITRTAGAPKEDKLVVHFAPAPADATDAQAAFAAVTPAGTVTIPMSATA	not soluble
MRHNIFYNRREFQMIDNFMQVLKLIKEKRTNNVVKKSDWDKGDLYKTLVHDKLPKQLKVHIKEDKYSVVGKVATGNYSKVPWISIYDENITKETKDGYYLVYLFHPEGEGIYLSLNQGWSKISDMFPRDKNAAKQRALTLSSELNKYITSNEFNTGRFYYAENKDSSYDLKNDYPSGYSHGSIRFKYYDLNEGFTEEDMLEDLKKFLELFNELASKVTKTSYDSLVNSIDEIQEDSEIEEIRTAQKDKTLKEVEAPKGIIPKYKKGVSKTTKNDSEIEKSNKENKLTGKVGEKLALNYFNELIDNKIDEDKKEQFRNILNDNPGSQHGHGYDLVAFDPTNTDKAVEKFIEIKTSTSSSIEEPFFMSLNEMFAMKEYKQKYLILRIFNVSGKEPQFYFIDPYANYSEFKDVDDLIDKVFNVEAIQYKVFGEKLEHHHHHH	not soluble
MGSDKIHHHHHHQEKVSSMSEKSAPGSIQQPTRAQQLMGDIDPKLAELTDKVLFGDVWERKQLSKRDRSLVTVAALISLNRPDQLRSHMALALQNGVTREELVETITQLAFYTGWPNAVSAVPVARDVFRAADAAASHPDQGAQAQDDRTITVIHAGSQPSTHGSADHFTGSVQVDSRFQAQAPARSGGGIVTFEPGARTAWHTHPLGQTLIVTAGIGLVQQWGGPVQVIKPGDIVWIPPGVKHWHGATRTSGMTHIAIAEALDGKSVDWMELVMDAQYLGGQPR	not soluble
GMQFPSIEDLRARNTMKWTRYGQGVLPLWVAESDFSTCPAVLQAITDAVQREAFGYQPDGSLLSQATAEFYADRYGYQARPEWIFPIPDVVRGLYIAIDHFTPAQSKVIVPTPAYPPFFHLLSATQREGIFIDATGGINLHDVEKGFQAGARSILLCNPYNPLGMVFAPEWLNELCDLAHRYDARVLVDEIHAPLVFDGQHTVAAGVSDTAASVCITITAPSKAWNIAGLKCAQIIFSNPSDAEHWQQLSPVIKDGASTLGLIAAEAAYRYGTDFLNQEVAYLKNNHDFLLHEIPKRIPGAKITPMQATYLMWIDFRDTTIEGSPSEFFIEKAKVAMNDGAWFGEDGTGFCRLNFATSREVLEEAIDRMAKAVSHHT	soluble
SSFFGFGQTAEIDIVLNDAETRKKVEHKTEDGKKDKYFLFYDGETVSGKVNVTLKTPGKRLEHYGIKIEFVGQIELYYDRGNHHEFVSLVKDLARPGELSQSQTFDFELTHVEKPYESYTGQNVKLRYFLRATISRRLNDISKEMDIVVQTLCTYPEINSSIKMEVGIEDCLHIEFEYNKSKYHLRDVIVGKIYFLLVRIKIKHMEIDIIKRETTGTGPSVYHENDTIAKYEIMDGAPVRGESIPIRLFLAGYEMTPTMRDINKKFSVRYYLNLVLIDEEERRYFKQQEITLWRKGDIVRRSMSQQATIAAQRYEGSNPEPTSAQAKEETD	soluble
MTIYVVTPTYARLVQKAELVRLSQTLSLVPRLHWLLVEDAEGPTPLVSGLLAASGLLFTHLVVLTPKAQRLREGEPGWVHPRGVEQRNKALDWLRGRGGAVGGEKDPPPPGTQGVVYFADDDNTYSRELFEEMRWTRGVSVWPVGLVGGLRFEGPQVQDGRVVGFHTAWEPSRPFPVDMAGFAVALPLLLDKPNAQFDSTAPRGHLESSLLSHLVDPKDLEPRAANCTRVLVWHTRTEKPKMKQEEQLQRQGRGSDPAIEV	soluble
MFRILTINPGSTSTKLSIFEDERMVKMQNFSHSPDELGRFQKILDQLEFREKIARQFVEETGYSLSSFSAFVSRGGLLDPIPGGVYLVDGLMIKTLKSGKNGEHASNLGAIIAHRFSSETGVPAYVVDPVVVDEMEDVARVSGHPNYQRKSIFHALNQKTVAKEVARMMNKRYEEMNLVVAHMGGGISIAAHRKGRVIDVNNALDGDGPFTPERSGTLPLTQLVDLCFSGKFTYEEMKKRIVGNGGLVAYLGTSDAREVVRRIKQGDEWAKRVYRAMAYQIAKWIGKMAAVLKGEVDFIVLTGGLAHEKEFLVPWITKRVSFIAPVLVFPGSNEEKALALSALRVLRGEEKPKNYSEESRRWRERYDSYLDGILRHHHHHH	soluble
MPFIAAMWHGQHIMISFMSRPQDRVATIISRSPDGNINTMALTRMGVRVMRASGARGRAVKDARAKGGAEGLRAMVKALKGGETVAFSADVPKVSRVCLEHHHHHH	not soluble
MGSDKIHHHHHHMDEYNFIVEKLQELGLTKREAEVYLAILMKNGATVKDLLETLDVHQPQLYNIIQSLIRKGFIRASAGRPRVYTANDITALIDVQKMKLDSLKRILQEELGKIRENEGEEPYISYVRSLEGVLASAIETINSAEVEIRAELPYQIYKELSPYFVSALRRGINLYLLVYPTTKSFIELADFKNQIKVKTSELGNFLLIISDLHRAVYSKRRFFTIHKLPISENEVYGYIIHEKDLLLRLLNIHNNLWVKAKEIIGWIPGPEVYPKTFIDFSMALNELEALLRLGYTPIVRVLGRDVKSEYPIEVSGRVRAVNRIGIVSNFILESNEGTFTVGGFDAEIEDIEAQRVIIEKVEREGGKKP	not soluble
AQYEDGKQYTTLEKPVAGAPQVLEFFSFFCGHAYQFEEVLHISDNVKKKLPEGVKMTKYHVNFMGGDLGKDLTQAWAVAMALGVEDKVTVPLFEGVQKTQTIRSASDIRDVFINAGIKGEEYDAAWNSFVVKSLVAQQEKAAADVQLRGVPAMFVNGKYQLNPQGMDTSNMDVFVQQYADTVKYLSEKK	soluble
MPRPPHLCTCGQLVPHGARCSCQIQRDRERKARFDQKRPSSRERGYTHEWRKARAEFLHQHPTCAFCGAPAGVVDHVIPHKGDMTLFWDRTNWQALCKPCHDRQKQMQERYNHIISLEHHHHHH	not soluble
GFNYSITGNIATFKNKITELPDNVRSVYGGNGMLDDIIGRPRNSIYGYVADGIFKTQEEVDNSPQQAGKGLGRIRYKDLDGDGRITQDYDRTWIGVSDPDFTYGLNLQASYKNVDLALFFQGVHGGDVWDSWIEYSDFWNIQDVNNTNHLKGVFNAWSPQNPDSNIPALSTRNTNDEKRTSTYFLKDGSYLKLRTIELGYTFPESMVKKAMISRLRAYVSANNVFTIKKWWDSNRFSGPDPEIRDFGYVIPFTATVGVNITF	not soluble
WTKKTLGSLFELKKGEMLEKELLAPDGKYEYFNGGIKASGRTNEFNTFKNTISIIIGGSCGYVRLADKDYFCGQSSCTLTVLDPLEIDLKFAYYALKSQEEKITSLASGTTIKNIRLSDLKDLPIPLVKSIQDQRTIAHALSVFDL	soluble
RSPYDMEVIGQTIDDAAGEAFDKCAKVMGLGYPGGPIVNKLASEGNPDAFRFARPHVSGYDYSFSGLKTSFLYTLRDKLAEDPDFIEKNKADLCASLQHTVIDILMKKLRQAAKDHSIKQVALAGGVSANTGLRDAFHDHARRYGWTVFIPKFAYTTDNAAMVAISGYYKYLQGDFCPIDAVPFSRITV	not soluble
